The nanobody polyreactivity screen of Harvey et al. (2022)

Test: yeast display, Sf9 membrane polyspecificity reagent, FACS + sequencing; frameworks hold sequencing errors
Method in brief: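 Galactose-induced (36–48 hours) yeast carrying a synthetic nanobody display library were exposed to 10% biotinylated, detergent-solubilized Sf9 membrane reagent at 4 °C for 1 hour. FACS followed streptavidin microbead enrichment, using low and high (top ~1%) gates for expression (anti-HA) and reagent binding (streptavidin). Colony PCR, MiSeq 2 × 250 sequencing and CDR-length filtering followed. Labels for polyreactivity reflect the gate of origin.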

Sequence	polyreactivity (PSR sort gate)
QVQLVESGAGLVQAGGSLRLSCAASGLTFALYAMGGYRQAPGKERELVAAIDWSGGITYYADSVKGRFTISRDNAKNTVYLQLNSLKPEDTAVYYCAARPSTFKYKYGYWGQGTQVTVSS	high polyreactivity
QVQLVESGAGLVQAGGSLRLSCAASGLTFDYYAMGWYRQAPGKEREFVAAITRRGGGTYYADSVKGRFTISRDNAKNTVYLQMNSLKPEDTAVYYCAAYGCGNRWYSRFDYWGQGTQVTVSS	high polyreactivity
QVQLVESGAGLVQAGGSLRLSCAASGRIFGYYAMGWYRQAPGKERELVAAITRGGSTYYADSVKGRFTISRDNAKHTVYLQMNSLKPEDTAVYFCAANISGLVKYENDYWGQGTQLTVSS	low polyreactivity
QVQLVESGAGLVQAGGSLRLSCAASGRIFRVYAMGWYRQAPGQERELVAAITSGGTTYADSVKGRLTISRDNAKKTVYLQMNILKPEDTAVYYCAARYYIHRGYDYDYWGQGTQVTVSS	high polyreactivity
QVQLVESGAGLVQAGGSLRLSCAASGRNFWYYAMGLYRQAPGKERELVAGITYGDGSTYYADSVKGRFTISRDNAKNTVYLQMNSLKPEDTAVYYCAVDLRSYWFRYGFDYWGQGTQVTVSS	low polyreactivity
QVQLVESGAGLVQAGGSLRLSCAASGRTFDKYAMGWYRQAPGKDRELVAAISGSGGRTYYADSVKGSFTISRDIAKNTVYLQMNSLKPEDTAFYYCAGDTGSYTYYYWGKGTQVTVSS	high polyreactivity
QVQLVESGAGLVQAGGSLRLSCAASGRTFHGYAMGWYRQAPRKERELLARINWSDGRTYYADSVKGRFTISRDNAKNTVFLQMNSLKPEDTAVYYCAADKTVSYAPAWYYYWGQGTQVTVSS	low polyreactivity
QVQLVESGAGLVQAGGSLRLSCAASGRTFWVYSMGWSRQAPGKESELVAAFRRGGITNYADSVKGRFTISRDNAKITVYLQMNCLNPEDTAVYYCATENYGYLTRYYYWGPGTQVTVSS	low polyreactivity
QVQLVESGAGLVQAGGSLRLSCAASGRTIGVYAMGWYRQAPGKERELVAAISWSGGTTYYADSVKGRFTISRDNAKNTVYLQMNSLKPEDTAVYYCAADSYTEVDYWGQGTQVTVSS	low polyreactivity
QVQLVESGAGLVQAGGSLRLSCAASGRTVAWNAMGRYRQAPGKERELVAAISWSGTSTYYADSVKGRFTISRDNAKNTVYLQMNSLKPEDTAVYYCATSVKARQIYGYYYWGQGTQVSVSS	high polyreactivity
QVQLVESGAGLVQAGGSLRLSCAASGSIFFSYAMGWSRQAPGKERELVAGINWSGGSTYADSVKGRFTISRDNAKNTVYLQMNSLKPEDTAVYYCAAKYYSERSRYHYWGQGTQVTVSS	low polyreactivity
QVQLVESGAGLVQAGGSLRLSCAASGSIFGRDTMGWYRQAPGKERELVAAINLRGGSTYYADSVKGRFTISRDNAKNTVYLQMNSLKPEDTAVYYCATDGWKQSAYDYWGQGTQVTVSS	low polyreactivity
QVQLVESGAGLVQAGGSLRLSCAASGSIFIHYAMGWYRQARGKERELVAAITGDGNTTYADSVKGRFTISRDNAQNTVNLQINSLKPEDTAVYYCAVTIVDYYWAFDYWGQGTQVTVSS	low polyreactivity
QVQLVESGAGLVQAGGSLRLSCAASGSIFNYYAMVWYRQAPGKERELFAGITTSGGSTYYADSVKGSFTISRDNAKNSVYLQMKSLKPVDTAVYYCGAYDHISSTYFLDDSWGQGTQVTVSS	low polyreactivity
QVQLVESGAGLVQAGGSLRLSCAASGSIFQPYAMGWYRQAPGKERELVAAISSSGGSTTYADSVKGRFTISRDNAKNTVYLQMNSLKPEDTADYYCAADSADDMGYWGQGTQVTVSS	low polyreactivity
QVQLVESGAGLVQAGGSLRLSCAASGSIFVVYAMGWYRQAPWKERELVAAISWGIGSTYYADSVKGRFTISRDNAKNTVYLQMNSLKPEDTAVYYCAADTDIVLYDYWGQGTQVTVSS	low polyreactivity
QVQLVESGAGLVQAGGSLRLSCAASGSILDEYAMGWYRQPPGKERELVAAISSSGTSTYYADSVKGRFTISRDNAKNTVYLQMNSLKPEDTAVYYCARVKQHTSHRVPGDDYWGQGTQLTVSS	low polyreactivity
QVQLVESGAGLVQAGGSLRLSCAASGSIYTLNAMGWYRQAPGKEMELVAAITSSGTGTYYADSVKGRFTISRDNAKNTVYLQMNSLKPEDTAVYYCAKDRPYWLSYGSWFKFNYWGQGTQVTVSS	low polyreactivity
QVQLVESGAGLVQAGGSLRLSCAASGSTFNHYAMGWYRPAPGKDRELVAAITWSGDSTYYADSVKGRFTISRDNAKNTVYLQMNSLKPEDTAVYDCNTYRIFGYSPYYAGYDYWGQGTQVTVSS	low polyreactivity
QVQLVESGAGLVQAGGSLRLSCAASGSTFPVYAMGWYRQAPGKEREFVAAITYSGARTYYADSVKGRFTISRDNAKNTVYLQMNSLKPEDTAVYYCNAVPYRYLLHGTRCPFSRGYDSWGQGTQVTVSS	high polyreactivity
QVQLVESGAGLVQAGGSLRLSCAASGSTFYFNGMGWYRQAPGKERELVAAISSTGNTYYADSVKGRFTISRDNAKNTVYLQMNSLKPEDTAVNDCLAGSSEAGYYWGHGTQVTVSS	high polyreactivity

Sequence	polyreactivity (PSR sort gate)
QVQLVESGAGLVQAGGSLRLSCAASGTTFWKYVMGWYRQAPGKERELVAAITSRGGSTYADSVKGRFTISRDNAKNSVYLQMNSLKPEDTAVYYCAATKFWYYGYDYWGQGTQVTVSS	low polyreactivity
QVQLVESGAGLVQAGGSLRLSCAASGYIFRQYAMGRYRQAPGTEREFVAAISQTGGSTYYADSVKRRFTLSRDNAKNTVYFQMNSLKPVDTAVYYCAARYRGQRYRKLDYWGQGTQVTVSS	high polyreactivity
QVQLVESGAGLVQAGGSLRLSCADSGSTFQPYAMGWYRQAPGKEREFVATISGSAGSKYYADSVKGRFKISRDNAKNTVYLQKNSLKPEDTAVYYCNADSGWFGYDYWGQGTQVTVSS	low polyreactivity
QVQLVESGAGLVQAGGSLRLSCPASGYIFWWTALGWSRQQPGKERELVAGISWSGSTTYYADSVKGRFTISRDNAKNTVYLQMNSLNPEDTAVYYCNAADITLYDYDYWGQGTQVTVSS	low polyreactivity
QVQLVESGAGLVQAGVSLRLSCAASGSILTDSAMGWYIQAPGKERELVATISNGGSTNYADSVKGRFTISRDNAKNTVYLKMNSLKPEDTAVYYCNAEPGVPSWELDYWGQGTQVTVSS	low polyreactivity
QVQLVESGAGLVQARGSLRLSCAASGIILYVNAMGWYRQAPGKERELVAAISWGGGSTYYADSVKGRFTISRDNAKNNVYLQMNSLKPEDTAVYYCAAEFWSGYPTYTYDFWGQGTQVTVSS	low polyreactivity
QVQLVESGAGLVQEGGSLRLICAASGRTFRGSDMGWYSPAPGKERELVAAITSGGSTNYADSVKGRFTISRDNAKNTVYLHMNSLKPEDPAVYYCNRDTSKYGLWRYIYDYWGQGTQVNVSS	low polyreactivity
QVQLVESGEGLVQARGSLRLSCAASGYTFLGYAMGWYRQAPGKERELVAAINRSGSSTYYADSVKGRFTISRDNAKNTVYLQMNSLKPEDTAVYYCNARSGNRYGPRYDYWGQGTKVTVSS	high polyreactivity
QVQLVESGGALDQAGGSLRLSCAASGRIFKWYAKGWYRQAPGKERELVATISWSGGSTYYADSVKGRFTISRDNAKKTVYLQMNSLKPEDTAVYYCNADTWLALPGFDYWGQGTQVTVSS	high polyreactivity
QVQLVESGGALLQAGGSLRLSCAASGGTFDTYAMGWYRQAPGKERELDAVIRASGGDTYYADSVKGRFTISRDNAKNTVYLQMNSLKPEDTAVYYCAAVLPFKYDYWGQGTQVTVSS	low polyreactivity
QVQLVESGGALLQAGGSLRLSCSASGRIFSANAMGWYRPAPGKERELVAAITYSGATTYYADSVKGRFTISRDNAKNTVYLQMTSLKPEDTAVYDCAADAGYTHYTAEEEYWGQGTQVTVSS	low polyreactivity
QVQLVESGGALVQAGGILRLSCAASGRTFQYNVMGWYRQAPGKEREFVAAITWNGGSTYYADSVKGRFTISRDKAKNTVYLQMISLKPEDPAVYYCAARWTKKLEYGYWGQGTQVTVSS	low polyreactivity
QVQLVESGGALVQAGGRLRLSCAASVYIQHKYAMGRYRQAPGKERDLVATISGGGGSTYYADSVKGRFTISRDNAKNTVYLQMNSLKPEDTSVYYCAKEYPWLPRSYEYWGQGTQVTVSS	low polyreactivity
QVQLVESGGALVQAGGSLRLNCAASGRIFVYNDMGWYRQAPGNERDLVAAISSVGTTYYADSVKGRFTISRDNAKFTVYLQMKTLKPVETAVYDCDVTRYHSPPRYYFWGQGSQVTVSS	low polyreactivity
QVQLVESGGALVQAGGSLRLSCAASGFTFAFYAMGWYRQAPGKERELVAAISSRGGSTYYADSVKGRFTISRDNAKITVYLQMNSLKPEDTAVYYCAARGYYSVVEYYYWGQGTQVTVSS	high polyreactivity
QVQLVESGGALVQAGGSLRLSCAASGFTFSAYAMGWYRQAPVKEREMVASISRGGITNYADSVKGRFTISRDNAKNTVYLQMNSLQPEDTAFYYCAVDYSFRYDYVQRYYYWGQGTQVSVSS	high polyreactivity
QVQLVESGGALVQAGGSLRLSCAASGIIFTPYAMGWYRQAPGKERQLLAAISWSGGRTYYADSVKGRFTISRDNAKNTVYLQMNSLKPEATAVYYCNARRYWWPHYYEYDYWGQGTHVTVSS	high polyreactivity
QVQLVESGGALVQAGGSLRLSCAASGIIFYDYAMGWYRPAPGKERELVAAITWTGSSTYYADSVKGRFTISRDNAKITVYRQMNCLKQEDTAVSYCAADYWEYSPYEDLTYDYWGQGTQVTVSS	high polyreactivity
QVQLVESGGALVQAGGSLRLSCAASGITFLYYAMGWYRQAPGKERELVAAISGGGASTYYADSVKGRFTISRDNAKNTVYLQMNSLKPEDTAVYYCAAGYRDFFRARFGYWGQGTQVTVSS	high polyreactivity
QVQLVESGGALVQAGGSLRLSCAASGITFWKYTMGWYRQAPGKERELVASIRIGGSTYYADSVKGRFTISRDNAKNTVYLQMNSLKPEDTAVYYCATDSRLWGQGTQVTVSS	high polyreactivity
